Paper PMC3229523, “Identification of Lactoferricin B Intracellular Targets Using an Escherichia coli Proteome Chip” (PLoS ONE, 2011)
Ends that are not written are not given here. * marks the point of attachment. Biotin = O=C1N[C@H]2[C@H](CS[C@H]2CCCCC(=O)*)N1

Tests used:
Assay in all cases: peptide or protein array; E. coli proteome chip: purified His-tagged proteins printed in duplicate on Fullmoon slides, blocked with 1% BSA; 10 nM N-terminal biotinylated LfcinB with 1% BSA, room temperature, 1 h; detected with DyLight 649-labeled streptavidin, ratio to DyLight 549-labeled anti-His antibody; ProCAT normalisation, local cut-off; triplicate chips
Details in all cases: both partners purified
[1] = target: T1, IlvL (E. coli K-12, UniProt P62522 1-32)
T1 construct: IlvL, E. coli K-12
T1 chain (looked up): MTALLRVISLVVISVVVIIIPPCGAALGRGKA

[2] = target: T2, YbcQ (E. coli K-12, UniProt Q47274 1-127)
T2 construct: YbcQ, E. coli K-12
T2 sequence (looked up): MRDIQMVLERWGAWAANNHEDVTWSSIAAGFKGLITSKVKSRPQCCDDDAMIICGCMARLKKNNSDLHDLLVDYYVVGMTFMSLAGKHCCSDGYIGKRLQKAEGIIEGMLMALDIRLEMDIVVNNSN

[3] = target: T3, YihI (E. coli K-12, UniProt P0A8H6 1-169)
T3 construct: YihI, E. coli K-12
T3 sequence (looked up): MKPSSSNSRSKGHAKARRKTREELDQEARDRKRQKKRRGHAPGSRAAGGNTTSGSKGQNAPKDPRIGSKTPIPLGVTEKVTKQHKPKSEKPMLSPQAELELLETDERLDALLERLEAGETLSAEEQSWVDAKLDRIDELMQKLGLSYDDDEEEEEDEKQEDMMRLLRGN

[4] = target: T4, HemK (E. coli K-12, UniProt P0ACC1 1-277)
T4 construct: HemK, E. coli K-12
T4 sequence (looked up): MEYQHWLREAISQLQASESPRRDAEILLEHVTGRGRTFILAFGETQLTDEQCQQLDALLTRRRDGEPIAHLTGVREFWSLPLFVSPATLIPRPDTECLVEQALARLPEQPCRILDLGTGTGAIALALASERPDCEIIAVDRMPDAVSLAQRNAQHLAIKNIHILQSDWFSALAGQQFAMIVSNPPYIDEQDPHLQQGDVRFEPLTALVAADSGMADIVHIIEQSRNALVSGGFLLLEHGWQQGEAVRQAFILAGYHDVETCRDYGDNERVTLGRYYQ

[5] = target: T5, YhdG (E. coli K-12, UniProt P0ABT5 1-321)
T5 construct: YhdG, E. coli K-12
T5 sequence (looked up): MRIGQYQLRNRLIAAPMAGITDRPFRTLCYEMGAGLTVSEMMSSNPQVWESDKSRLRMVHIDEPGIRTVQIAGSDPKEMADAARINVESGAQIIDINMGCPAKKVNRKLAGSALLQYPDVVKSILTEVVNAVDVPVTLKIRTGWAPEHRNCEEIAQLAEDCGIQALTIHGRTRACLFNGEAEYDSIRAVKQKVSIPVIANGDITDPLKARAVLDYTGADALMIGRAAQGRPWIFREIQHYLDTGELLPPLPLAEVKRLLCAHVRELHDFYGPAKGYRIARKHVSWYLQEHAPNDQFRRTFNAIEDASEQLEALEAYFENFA

[6] = target: T6, CaiA (E. coli K-12, UniProt P60584 1-380)
T6 construct: CaiA, E. coli K-12
T6 sequence (looked up): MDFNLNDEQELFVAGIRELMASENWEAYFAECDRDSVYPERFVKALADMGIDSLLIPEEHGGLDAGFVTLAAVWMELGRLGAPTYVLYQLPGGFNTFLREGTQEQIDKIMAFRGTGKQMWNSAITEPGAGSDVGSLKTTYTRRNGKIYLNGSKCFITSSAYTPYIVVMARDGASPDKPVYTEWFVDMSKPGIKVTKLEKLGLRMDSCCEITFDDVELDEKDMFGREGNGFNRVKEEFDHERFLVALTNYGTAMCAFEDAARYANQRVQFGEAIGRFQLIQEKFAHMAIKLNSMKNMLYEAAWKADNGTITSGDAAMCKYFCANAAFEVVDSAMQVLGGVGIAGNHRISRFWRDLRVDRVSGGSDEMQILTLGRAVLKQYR

[7] = target: T7, EnvR (E. coli K-12, UniProt P0ACT2 1-220)
T7 construct: EnvR, E. coli K-12
T7 sequence (looked up): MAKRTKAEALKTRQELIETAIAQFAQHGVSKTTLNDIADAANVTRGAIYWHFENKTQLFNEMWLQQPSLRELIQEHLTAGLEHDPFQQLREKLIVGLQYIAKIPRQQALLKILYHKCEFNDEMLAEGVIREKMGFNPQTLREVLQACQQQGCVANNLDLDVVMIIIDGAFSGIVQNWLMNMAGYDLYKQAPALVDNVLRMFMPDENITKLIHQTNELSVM

Measured: binding result

B1: N-terminal biotinylated Lactoferricin B (peptide, UniProt P24627 36-60, looked up)
peptide: Biotin-FKCRRWQWRMKKLGAPSITCVRRAF
modifications: ends and bridges not checked
notes: lactoferricin B (LfcinB), cationic antimicrobial peptide of 25 amino acids; also called biotinylated LfcinB; biotin-labeled LfcinB; source: bought: Kelowna Inc
binds: all assays above
